# T1: LurR (Desulfovibrio vulgaris Hildenborough) (UniProt Q726T3)
# T1 sequence: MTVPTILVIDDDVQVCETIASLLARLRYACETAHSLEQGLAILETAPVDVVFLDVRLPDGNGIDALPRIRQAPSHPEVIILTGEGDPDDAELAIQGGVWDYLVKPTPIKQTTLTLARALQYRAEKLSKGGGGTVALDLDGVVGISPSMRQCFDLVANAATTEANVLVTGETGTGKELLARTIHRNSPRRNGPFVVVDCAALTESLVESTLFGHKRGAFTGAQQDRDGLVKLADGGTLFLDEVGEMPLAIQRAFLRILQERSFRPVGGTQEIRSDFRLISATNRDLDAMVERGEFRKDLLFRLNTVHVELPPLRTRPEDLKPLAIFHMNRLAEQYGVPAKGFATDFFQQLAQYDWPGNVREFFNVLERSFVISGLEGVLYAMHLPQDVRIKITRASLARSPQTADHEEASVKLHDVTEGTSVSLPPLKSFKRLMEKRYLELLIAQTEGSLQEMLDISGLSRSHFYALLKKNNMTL
# T2: PhoB (Desulfovibrio vulgaris Hildenborough) (UniProt Q72D47)
# T2 sequence: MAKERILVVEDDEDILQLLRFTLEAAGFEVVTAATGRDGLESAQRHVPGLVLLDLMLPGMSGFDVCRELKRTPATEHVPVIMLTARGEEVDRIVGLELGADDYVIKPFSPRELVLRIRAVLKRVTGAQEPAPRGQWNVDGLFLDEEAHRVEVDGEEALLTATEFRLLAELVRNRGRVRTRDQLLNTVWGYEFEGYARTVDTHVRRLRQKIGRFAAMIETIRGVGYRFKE
# T3: LurR (Desulfovibrio vulgaris Hildenborough, UniProt Q726T3 1-474)
# T3 sequence: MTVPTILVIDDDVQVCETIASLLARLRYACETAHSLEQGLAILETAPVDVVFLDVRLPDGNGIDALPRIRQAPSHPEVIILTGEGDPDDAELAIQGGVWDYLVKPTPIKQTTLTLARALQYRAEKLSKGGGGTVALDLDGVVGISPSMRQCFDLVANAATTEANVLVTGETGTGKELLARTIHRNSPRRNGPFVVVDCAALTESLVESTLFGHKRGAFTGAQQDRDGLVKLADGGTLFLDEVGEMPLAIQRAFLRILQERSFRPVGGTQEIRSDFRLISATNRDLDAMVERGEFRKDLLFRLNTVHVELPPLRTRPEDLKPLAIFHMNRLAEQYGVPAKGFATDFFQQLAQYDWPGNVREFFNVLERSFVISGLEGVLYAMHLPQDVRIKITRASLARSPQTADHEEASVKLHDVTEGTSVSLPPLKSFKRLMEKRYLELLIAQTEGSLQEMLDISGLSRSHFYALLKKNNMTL
# B1: por LurR motif mut oligo (dsDNA)
# DNA 1: GCCACACGAACTGCGCTTTTCAATCAACGCTACCAC
# DNA 2: GTGGTAGCGTTGATTGAAAAGCGCAGTTCGTGTGGC
# What was measured:
# [1] = target: T1, LurR (Desulfovibrio vulgaris Hildenborough); assay: EMSA; details: 10 mM Tris-HCl pH 7.5, 50 mM KCl, 5 mM MgCl2, 1 ug/ml poly dI.dC, 100 fmol biotinylated DNA in 20 ul, room temperature, 20 min
# [2] = target: T2, PhoB (Desulfovibrio vulgaris Hildenborough); assay: EMSA; details: 10 mM Tris-HCl pH 7.5, 50 mM KCl, 5 mM MgCl2, 1 ug/ml poly dI.dC, 100 fmol biotinylated DNA in 20 ul, room temperature, 20 min
# [3] = target: T3, LurR; assay: EMSA; 0.5-1 pmol LurR; 10 mM Tris-HCl pH 7.5, 50 mM KCl, 5 mM MgCl2, 1 ug/ml poly dI.dC, 100 fmol biotinylated DNA in 20 ul, room temperature, 20 min; details: protein: recombinant; chain copies: 2; label: biotin on one strand
Molecule,binding [1],binding [2],binding result [3]
GTCAGTAGGGTAACGCCACACGAAGTCCGCTTTTCAAGACACGCTACCACGCAACCCCATCCACGAGAAACGACAGCCGGAGGAAAAACCAAGGTTACAGCATAGTTACAGATAACACACCATTGGCACATTTCTTGTTAAACTTGCGGAGTTCGCGCTCTCCGCGCAACGGTCTCGGGCTCGCCCGCAAGCACCGTGAACTCCAGCCTCCGGCCCCCGGCGGCATGCCATTTTCACCACGCGCCCACCACAGGGCAGAAAAAGGAGATCGTAAATGGCCAAG (double strand) [por promoter substrate III (283 bp)],binds,binds,
CGAGAAACGACAGCCGGAGGAAAAACCAAGGTTACAGCATAGTTACAGATAACACACCATTGGCACATTTCTTGTTAAACTTGCGGAGTTCGCGCTCTCCGCGCAACGGTCTCGGGCTCGCCCGCAAGCACCGTGAACTCCAGCCTCCGGCCCCCGGCGGCATGCCATTTTCACCACGCGCCCACCACAGGGCAGAAAAAGGAGATCGTAAATGGCCAAG (double strand) [por promoter substrate IV (220 bp)],no binding,binds,
B1,,,no binding
